Test: label from the status in PepcDB records

Sequence | protein production
MTNLELSGSQSYLNDESTANLSSLAGKFLVQFWGVRGLIPTPSSNTSRYGGNTACVEMQVAGKRLIFDGGTGLRILGKAWQHLQQPLEAHLFFTNSQSNRIQGFPFFAPAFIAGNCFHIYGGAASNGASIKQCLCDQMLQPHFPYPLQVMQSELQFYPLTPDSEVKLDDVTIRTALINQTQRSIGYRVTWQEYSVAYVTDLNMSAEQGEREQVLQIIQDVDLLIANATYTPPTSHDHESVDLLWQAAVEMAQKAGVRKLIISHHHPDDHDDFLDQVEKEVQSTFSDALLACEGLALPVFLEHHHHHH | not failed
MADSIKSSNSFQKLDNIDAKETSTVDRKWVALTAYQPVDVVTKTVEVPIIKTVEKYVPKTIIQEKIIHVPKNVTHIVEKIVEVPEVKYIEKIVEVPHIHYKNKYVPKIEIVEKVVERQKIIEKWHDKIVEVPQIKEVVRFKQIEDSEEIIKYVPRNSKNIDWEDEYKKYTESKGLQRYSLDQNNIYQQANSFNQFNENAYNQNAFNRSYELLNKQSSVKSQNNASGENFSQMNFYNQYSGANFEQERSIQASNFEPSGSMQLKRLSSEEIKPAGCCSAACT | failed
MKRCRRRTQAGIRINLCVQGREGLSSPTPIGPIVTSTQPDSRASSLTDDALQWTRLEVAFTAGIVGCLLFATWQLGDLLARDWLAGWVGESELREDLVYYGVAFTAALAALGGTTRSLAHAGRFRRTVGRSLLWYGALLLISASGMGAIEYLPEVAAGLFGAGVLIAAVYVLQQRYFTRERIRRRRLRNDNCPQCGSDLRPEAHHCSQCGRRMGEDCPECGGYLGRSDRYCADCGRERAEGAP | failed
ANIYTFDFDEIESQEDFYRDFSQTFGLAKDKVRDLDSLWDVLMNDVLPLPLEIEFVHLGEKTRRRFGALILLFDEAEEELEGHLRFNVRH | not failed
MIVAWTLGIFGDDLPKGGARETGLLVHVSAGLLILAALIMRLVWRAAVPPPPPEPNEFRRWLGAFADPSARLFHYTLYALLVVVPVAGIVTQFARGEALPLLGIYEISSPWIRDRAFAHSVKEIHEIAAHALVFVAFFHAGAALIHHIVFRDNTLNRMLPRSK | failed
MAFCSLEKRHAILDWPQLQLTNGSGRCSGRVEVYYHGQWGRVCDDQWDLREADVVCRQLNCGDALEAPVQARFGDGPGEFLLDEMDCTGTESFLGQCPHAGWHLHNCGSGEDASVICEGNGEELVARPQVLPVADPVPGSRRAHVPRLSLNGADMSPDPTPVIDPDPESSKPSGDWAPVRLSGNHGSCAGRVELFYQGVWGTVCDDLWDLTEANIICRQLGCGRAVSALSEAYFGQGSGKILLDNVHCKGHEEHLEECSHLGWFSHNCDHSEDASVICSDAEYGMATLSDHPLAVMEGAMNPEKSRCGGVITKAPGKIKNPPMNEMHDNITCVWEIRANTSDRIRLAFPSLDLDCTNEYFEILDGPPSSVKSLGKPCRGLHVTFASHSNSMTLVYFRGENNIGKNFMAYYYFEAKEVTTKTPYLITIPTATSKMVTERPQFSKPAQPTHTPSGNVSPLPVPDSGDWPELRLVGGSNRCSGRVEILYQGVWGTVCDDLWDLNEAEVVCRQLECGQAVSSLGEAYFGPGSGDIFLDNLQCSGLEHYLSQCPHSGWSEHNCGHHEDAGVICSDSGAPPPPMPPGPPPTSQDPLTGGSNSCGGVISSLSGSFTSPQYPENYPTDIQCVWEIHVEKNFRIELMIPNLNLEDILGCPYDSVEIFDGPRIPSLSMGKFCAPSAVVFFSSSDILTVVFRSDYMTTNTGFYAFFNAIPQDGKESEERPVLRLAGSSGQCSGRVEILHQGAWGTVCDDLWDLNEAEVVCRQLGCGHAIAAPGSAYFGPGSGNILLDNIQCSGKENHFGQCSSSAWLDHNCGHHEDAGVICSDAEVTPSPTEGSQSCGGVISSLSGSFSSPWYPTNYPTDTECIWEIHVAEKFNIELTIPSLK | failed
MNMGMVTLAAIRSVPMATTYIRGGTVVSPTGCQDLDVLIDGERIAALVDPELAPFDDPDRTFDHVLEAKGKYVIPGGVDAHTHMEMPFGGTVASDTFETGTRAAAFGGTTTIIDFAIQRQGERVQDTLAAWHAKARGNCAVDYGFHQILGGVDTDALKAMDELVAEGVTSFKLFMAYPGVYYSDDGQILRAMQQCAGNGALTMMHAENGIAIDQLVAQHIERGETSPYYHGVSRPWELEEEATHRAIMLAKITGAPLYVVHVSAKQAMEQIAGARGSGANVFAETCPQYLYLSLEEQLAAPGFEGAKWVCSTPLRSHEEGHQEELWRYIRTGDVATVSTDHCPFCFKGQKEMGLGDFSKIPNGMSGVEHRIDLMYQGVVNGKLSLQRWVDVCATTPARMFGLYPRKGIVSPGADADVVIYDPDGRTSIGFEKNHHSNVDHSTWEGFEVEGCVQTVLSRGTIVVDRGRYLGRKGHGVFLKRGLSQYLI | failed
MAEKSNKLDHIGIAVTSIKDVLPFYVGSLKLKLLGMEDLPSQGVKIAFLEIGESKIELLEPLSEESPIAKFIQKRGEGIHHIAIGVKSIEERIQEVKENGVQMINDEPVPGARGAQVAFLHPRSARGVLYEFCEKKEQ | not failed
MKILSIHDLQIIRKRAEHHLSLREESNEKVSEKCCGLASGTTHLQILICGGTGCKASSSQGITENLQKAIERNGITDKVDVITVGCFGFCEKGPIVKIIPDNTFYTQVTPEDAEEIISEHIIGGRRIERLLYIDPKTEQTVSDSKHMDFYRKQLRIALRNCGFIDSENIEEYIAREGYFALADCLLNKQPADVIDIIKRSGLRGRGGGGFPTGLKWEFASKQVSNVKYVVCNADEGDPGAFMDRSIMEGDPHSIVEAMCICGYSIGSSKGLVYIRAEYPLAINRLKKAIEQAREYGLLGDHILGTDFSFDIEIRYGAGAFVCGEETALIHSMEGKRGEPTLKPPFPAESGYLGKPTNVNNVETLANIPIILTKGAEWFASIGTERSKGTKVFALAGKINNVGLIEVPMGTTLREVIYEIGGGIKGGKKFKAVQTGGPSGGCLTEKHLDTPIDFDNLLAAGSMMGSGGMIVMDEDDCMVSVARFYLDFTVEESCGKCTPCRIGNKRLLELLNKITEGRGTEKDLDTLATLGRVIKDTALCGLGQTSPNPVLSTLDNFRDEYLEHVRDKTCRAKQCKSLLTYTINPELCIGCHLCAKNCPADAISGLVRKPHVIHPEKCIKCGMCMARCKFKAILVC | failed
MSELILVRHGQATPFEKATDRLSALGEQQARAVGAALTAQGVRPTHVLHGSLVRQRRTAELAGEGQTGNEPGWPAPTLDPRLSEFDGDGLVTTLAPLLAQQDAEFGTLATTFREHRDSPERNRHFQRMLEALAAAWQAGTVTHPEVEGWADFRARVRAGLGDVLRLPAGTTAVLFTSGGVIGLAVALALDAPDASALKLNWRVKNGSLTRFTFGGGRLSLDSFNEEGHLTPELRSWR | failed
MAKFIMVVGTSSNSGKTVLVSGICRMLSNKGYKVAPFKSQNMSLNSRVSVEDGEIAVAQYTQAMAARAEPSVHFNPILLKPKGNFVSQVIVHGNPYEDKDYNEYRSKKDDFLVKIKESIDYLDKNYDYVVIEGAGSCCEINLLNDDIANLKVAEIAGADAILVSDIDRGGVFASIYGTVQLLPENWKKLLKGFVINKFRGNIDVLKDGFEKIEELTNIPVIGTIPYDETLVLPEEDSQALDGKRVFGNLKSPIEVNVVKFSKIANFTDVDPFSSDCLMKYIDFNENITGDILILPGTRCSTVEMDLMKKYGMDKKILEFVENGGIVLGICGGYQALGKMLFDEDFSEGDVGTISGLGLFDMETTFGNKKAIKNSTGKISIFNQNFDVSGYELHEGYSVSNETPLISLSKGFGNCGDSYDGSFKMIGDSYIFGTYFHGILENFEFRNYLVNLARSKKNLSKIEDDTYAELFNENMDKLSKIIEENLDFSKIIG | failed
MILTLLQNGDYETARTQALTELKNNSDNAELHYYAAWAHDALGKEDAAIPFYEKALQLGLPADSRKEAYIGLGSTYRITGQPEKSIRLFETALQEFPDNNALRTFSVMAKYNQGLEKEALEEALMLLTQTTSDEDILSYKKAIQFYAQDLDATFHLEHHHHHH | not failed
MIDIKVDPRLKSQRFRQEREADWRRLERLIGKVEKGSIADLSDEDLLAAPVLYRSALSALSVARATSLDRALIAYLETLCARAYFFVYGSRETLWGQLKGFFAGDWPAAVRGLWRETLVSAALMALGVMIAAWLVGHDPDWFYAFVPRELAGGRDPAATTEALAATLGGKDASGLTVFATFLFTHNAQVALLAFALGFALCVPTAGLVLYNGAMLGAFLALFASRGLGIELGGWLLIHGVTELFAVILAGAAGLRIGWAAAFPGERRRLDALAEAGRHAATVMGGVVVMLFLAGLLEGFGRQLITDTAARYGVAAATALMWGLYFYGPRRHG | failed
MTEVSFFLSDNNWYFVVVINNKDFCMKCHRLNEVMELLHPVWEENSDLNLVQLLQKLADEAGFKGQLSDLTDDILIYHLKMRGSAPTEVIPGLKKDYEEDFKTAILRARGVIKD | failed

From a protein production outcome set (Wang et al. 2014)
